In PMC2100151, “Structural and Functional Characterization of the Human Protein Kinase ASK1” (Structure(London, England:1993), 2007):

Assays:
[1] = biological target: the molecule itself; experiment: AUC; sedimentation velocity; 13 μM protein in 10 mM HEPES pH 7.4, 120 mM NaCl, 0.25% glycerol, 4°C, 40,000 rpm; c(s) and c(M) distributions (SEDFIT)
[2] = biological target: the molecule itself; experiment: AUC; sedimentation equilibrium; protein at 6.5, 11.9 and 25.2 μM, 10,000 and 15,000 rpm; global fit to a self-association model; dimer to monomers

Protein	stoichiometry N [1]	Kd [2] [µM]
Human ASK1 catalytic (kinase) domain, homogeneously triphosphorylated (domain or fragment, phosphothreonine at 813, 838 and 842 (autophosphorylation sites identified by mass spectrometry), Apoptosis signal-regulating kinase 1 (ASK1, MAP3K5), human, residues 659-951, gi|5174547; the same recombinant construct as m1, autophosphorylated; also called Tri-phosphorylated ASK1; triphosphorylated ASK1; source: recombinant protein treated with ATP/Mg2+ (autophosphorylated)) not shown	2	
Human ASK1 catalytic (kinase) domain, residues 659-951, phosphatase-treated (domain or fragment, mixture of un- and monophosphorylated protein; Thr838 partially phosphorylated in the crystal, Apoptosis signal-regulating kinase 1 (ASK1, MAP3K5), human, residues 659-951 of the 1,374-residue protein, gi|5174547; Crystallised with 1 mM staurosporine; also called MAP3K5; ASK1 kinase domain; not shown: His6, N-terminal, cleaved) not shown	2	0.22 ± 0.2
